For the series, the target named is T1, Mtr4 ΔSLYL (Saccharomyces cerevisiae, UniProt P47047 1-1069, del1070-1073).
T1 sequence: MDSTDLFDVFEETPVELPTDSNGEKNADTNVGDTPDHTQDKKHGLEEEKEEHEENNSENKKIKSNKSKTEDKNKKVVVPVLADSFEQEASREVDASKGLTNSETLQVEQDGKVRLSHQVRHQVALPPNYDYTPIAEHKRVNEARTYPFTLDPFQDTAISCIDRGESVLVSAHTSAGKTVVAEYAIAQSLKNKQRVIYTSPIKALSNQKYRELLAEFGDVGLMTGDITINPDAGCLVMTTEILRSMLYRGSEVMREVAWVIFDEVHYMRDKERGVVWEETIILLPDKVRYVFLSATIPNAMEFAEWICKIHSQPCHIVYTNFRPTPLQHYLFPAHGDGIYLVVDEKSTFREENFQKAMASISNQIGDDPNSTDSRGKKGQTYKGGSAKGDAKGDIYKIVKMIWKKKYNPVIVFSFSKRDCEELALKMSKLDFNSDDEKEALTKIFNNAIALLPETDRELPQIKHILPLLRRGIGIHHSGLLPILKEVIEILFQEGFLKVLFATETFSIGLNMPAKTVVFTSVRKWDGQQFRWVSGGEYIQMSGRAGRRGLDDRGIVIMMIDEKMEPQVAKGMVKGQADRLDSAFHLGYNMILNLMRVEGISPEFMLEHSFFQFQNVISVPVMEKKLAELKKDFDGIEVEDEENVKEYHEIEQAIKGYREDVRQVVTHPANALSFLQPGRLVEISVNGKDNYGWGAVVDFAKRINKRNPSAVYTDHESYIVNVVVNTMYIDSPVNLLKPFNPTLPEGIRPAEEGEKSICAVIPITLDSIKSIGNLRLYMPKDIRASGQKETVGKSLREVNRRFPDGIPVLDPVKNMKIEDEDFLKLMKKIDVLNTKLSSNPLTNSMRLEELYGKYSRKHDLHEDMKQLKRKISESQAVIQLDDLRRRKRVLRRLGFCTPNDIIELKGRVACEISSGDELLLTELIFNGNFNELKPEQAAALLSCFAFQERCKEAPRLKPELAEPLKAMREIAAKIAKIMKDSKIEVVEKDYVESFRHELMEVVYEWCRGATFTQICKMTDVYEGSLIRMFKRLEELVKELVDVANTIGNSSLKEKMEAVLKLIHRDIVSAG
The experiment in a line: EMSA. For orientation: In EMSA bound probe runs differently from free probe, usually more slowly.

Bounds are passed on as bounds.

B1: ds16UA5 (R16/R22A) (dsRNA)
RNA 1: AGCACCGUAAAGACGC
RNA 2: GCGUCUUUACGGUGCUUAAAAA
Consider B1, for which the binding signal was more than 5 fold Kd vs WT.

The record behind these values is article PMC10984559.
